From the supplement of paper PMC9170038

The sequences below were run on K4 kissing-loop RNA reporter (assay: apparent KD of K4 kissing-loop reporter; higher = weaker reporter binding). Settings: Eterna round: R107; input ligand: theophylline 20 uM.
Method: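 RNA-MaP round R107: designed RNA switches with theophylline, tryptophan, arginine or FMN aptamers are transcribed on-chip within common flanks. They are titrated with a labelled K4 kissing-loop RNA reporter in RNA-MaP buffer (100 mM Tris pH 7.5, 80 mM KCl, 4 mM MgCl2), without ligand or with the indicated ligand. Median apparent KD per design.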
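Also: bound reporter read as fluorescence of individual clusters on recovered sequencing chips by microscopy, with normalized cluster intensities fitted with a binding model.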

| Sequence | apparent KD of K4 kissing-loop reporter [nM] |
| --- | --- |
| UCUGUGUCCGCGGCCGCCACUCGGGACUAAGUGAUGUUUAGUCCUUCAGAAUAAAGAAGUGAUGAGAGGACCGGGCGAUCGCACC [theeternabot_sameState_KL_Trp_B_2] | 72.3 |
| GGGAGUGAUGUUCCCGCGUUGACGGUCCUCCGAGGACCGGUACGGCCGCCACUCGAAACCCAGUGAUGUUGGGACUCACCGUACU [Exclusion Tryptophan A GF 11] | 620 |
| CUAGGUAACACAGGAUAUGUCCGAGUGAUGUUCGAGCCUUUCCAUUGACGAAAUUAAUGGUGGGUGACAGAAGGGUGAGUACUGA [Uses] | 640 |
| CCAUCGCUAUUCGAUACCAGUCAUAAAAUCUUUGGUUAAAUAAAGGAGUGAUGUUCCCAAGACCCUUGGCAGCGAAUAGUGAUGG [Theophylline B K4 7] | 266 |
| AACUGUCAAGGACAACAUUACUGCAGUGAUACCAGCAUCGAAAGAUGCCCUUGGCAGCACCAACUUGCAGUGAUGUUGCAAGUAA [BrourdMod 5 - Jieux - Exclusion - Theophylline A] | 188 |
| GGAUAGGACAGAGGAUAUCCUUGAGGCAAGAAACUUGUCUCUAAAGGAUGAAUCCUAGUGAUGUUAGGAGAAGGCUGUCCUAUCG [FmnBX 14 - #SwitchBubble #StaticStem #Palindromic] | 77.2 |
| UUUCCAGUGAUGUUGGAGAAAACCGAGGAAGGAGCGGACUCUUGUCCAGGUAGGUCGCCUCGUCUCCCAUUGGCAGAGCGGACCC [Enlaonbian] | 574 |
| UAUAGAAACGUCCUAUCAGUAAAAUGGGAAGGAGCGAGGAAGGACUCAGGUAGGUCGCCCAAUAACCUUAGUGAUGUUAAGGAAA [Version 2] | 112 |
| AGGAUCCGUCGACAAAAGUCGACAAUAACCAAGGAUAUGACGAAAGUCAGAAGGUGGUCUUAUGACCAGUGAUGUUGGUGGAUCC [FmnA 15 #SwitchBubble #K4Late] | 197 |
| GCCUACGUAGCAGGAUAUAGGUAAGUGAGUGAUGUUCAAGAGUUCUGGAGUGAUGUUCCAAUCUGACUAGAAGGGCUACGUAGGC | 57.3 |
| GAGAGCCCUGUAGGAUAUGAGUCUAGUGAUGUUAGGCGGUCCAUGCGCGUGGCGCGUUAUGCCCUUUUAGAAGGACAGGGCUCUC [#2 Exclusion - FMN B Attempt #20 (HarryS)] | 80.1 |

Same assay, conditions: Eterna round: R107; input ligand: tryptophan 2.4 mM

| Sequence | apparent KD of K4 kissing-loop reporter [nM] |
| --- | --- |
| AGGCACGAGCAAGGAUAUCGAGUAGAGUGAUGUUCUGCCUGGGUUGGCCCGUAAGGGCCUUCCCAGCGAGAAGGUGCUCGUGCCU [#2 Same State - FMN A Attempt #10 (HarryS)] | 536 |
| AAUAAGGUCGCCGAUACCAGCGCGGGCAGAGCAAAGCUCUGCCCGGUAGUGAUGUUACCGCGCCCUUGGCAGCGGUGGCACGACC [Omei KL Theo B SS C v6] | 63.3 |
| UGUACCGAGUCAGGAUAUGGCGUCGAAAGACGAAUCCUAGUGAUGUUAGCGAUCUGCGAAAGCAGUCCAGAAGGGACUUGGUACU [FmnBS 26 C50] | 290 |
| CCGGCCCGGCCGGAUACCAGUGCGCCGCAGGGAACGGCGGGCCCAGAGUGAUGUUCGGGACACCCUUGGCAGCCGCCUGGGUCGC [#2 Same State - Theophylline B Attempt #27 (HarryS)] | 245 |
| AUUAAUAUCACGGCCGCCACUGAAUAUUGUUUUUAUAUUUAGAAUAAUUGCCAGUGAUGUUGGAUCAGGACCGGGUGAGUUUAUA [JR_SSTryptoB_Sub007] | 421 |
| AAUGAUGAUUGACACAUUUACUAAAAGGAAGGAGCGGCGAUGUGGCCAGGUAGGUCGCCUUUUAGCAGUGAUGUUGCUAUAUGUU [JR_Nu_ExcArginiA_Sub026] | 70.4 |
| AGUGAUGUUGUGUGAUGUUAGUGAAGUGAUCGAGGACCGGUACGGCCGCCACUCGAGUGAUGAGUGAGUGAUGUUUGUUUAGUGG [#17 K4 Tryptophan A Same State] | 139 |
| AUGAGGAGCAGUGAUCCUACUCCAUGGGAAGGAGCGUAGGAUACUACAGGUAGGUCGCCCAGUGAUGUUGGGCGCGUGCUCUUGG [Isatquesra] | 150 |
| GAUAGUUAGAGAGAUACCAGCGAUACCUAGAUGGAAAGUGAUGUUCGCCAUCAAUUGCACCGCCCUUGGCAGCUCUCUCUUUGCU [theeternabot_exclusion_KL_Theo_B_37] | 959 |
| UGUACCGAGUCAGGAUAUGUCGUCGAAAGACGAAAUGGAGUGAUGUUCCUUAAACUGCGAAAGCAGACAGAAGGGACUUGGUACU [FmnBS 29 #SwitchBubble #StaticStem #DoubleMagnetSystem] | 274 |
| ACCUCACAGUGAUGUUGUGAGCCGAUAGUGAAGGAUAUUGUAAAGUCAAGAAGGUCAUGUCAGUCACAAAACGUUAAGCCUCGCA [theeternabot_exclusion_KL_FMN_A_19] | 194 |
| UGAUACCAGGCGGCCGCCACUCCUACAGGUCAAAGACCUGUAAAGCUGGUUCUCCAGUGAUGUUGGAGGACCGGGCCUGGUAUCU [FiskerMod 29 - Jieux - Exclusion - Tryptophan B] | 428 |
| UUAUAUAUAUUAGAUACCAGUUUAAUGGAAACAAAUUAUGUUAUGAGUGAUGUUCAUGUAAGCCCUUGGCAGCUGGUAUGGGUUU [KL-XTheo-B18] | 207 |
| AGUGAUGUUCCUCCUCUUGGUCUUGGUGGGCGAGGACCGGUACGGCCGCCACUCGAUGUGGGAGUGAUGUUUCCAUAUGAUGUUU [Tryptophan A] | 401 |
| AUUCGUUUAUGUGAUACCAGACUUUGCAGUGAUGUUGCAUUUAUUUUUGAAUUUUAGUUUGUCCCUUGGCAGCACUAUUUAUUUA [JR_SSTheophyB_Sub005] | 42.3 |
| UAGCAUUUGCUCGAGUGAUGUUCGAGCGAAGGAGCGCGAGAAAUCGCAGGUAGGUCGCGCUCGAACUAUGAGCGAUCAUUUAUUG [Arg A Ex t2d] | 331 |
| UGUGGAGAAUAUGAUACCAGCAGAGAGAGAGAGGAAGUAUAGUGAUGUUAUAUGAGAGAAUGCCCUUGGCAGCAUAAGAAGAAGG [SSTheophylB.C] | 192 |
| GAAAGAAAGUAUGAUACCAGACACCCGAGUGAUGUUCGGAGCAGUGUGUUGUUCUUUUAAGUCCCUUGGCAGCAUAAAAGAAAAG [whbob_SS_Theo_B_sa85] | 87.1 |
| GGUAGCAUGGCGGCCGCCACUAAAACUGGAUCGGAAACGAUCCAGUAAUUUCGAGUGAUGUUCGUUAGGACCGGGCCAUGCUACC | 236 |
| UGGAUAUAGUGAUGUUAUAUAGAGAUGGAUACCAGCGAAGAGAAUUGCCCUUGGCAGCCGAAAGAAGUAUCAUUAGAGAAGAAUG [ExTheophyl.Ah] | 186 |
| AUUUUUUUAUCAGGAUAUUAGUGUUGGUUUGUUUUGUUAGUGAUGUUGAUAUUUGUUUUAUGUAUUUAAGAAGGGAUUGUGAUGU [huupullin] | 264 |

| Sequence | apparent KD of K4 kissing-loop reporter [nM] |
| --- | --- |
| GAUACCACGUUAGAUACCAGCUUCGUUGACUUGGGUAGUAGUCGAACUUCAGUGAUGUUGAGCCCUUGGCAGCUACAGAUGUGCG [theeternabot_exclusion_KL_Theo_B_38] | 624 |
| AGCGGCGCGCUGGAUACCAGUGUCCGACGCGUUAGUAUAGAUCCAAAGUGAUGUUUUGGUCACCCUUGGCAGCCACCUCUGUCGG [theeternabot_exclusion_KL_Theo_B_29] | 195 |
| CUUAAGGAGUGUCGUGCCGGACACUGGGAAGGAGCGCAAUUCUUUGCAGGUAGGUCGCCCAGUGAUGUUGGGUCUCGCUGUCGAA [KL-XArg-A20] | 285 |
| GACAUAUUCCAGGAUACCAGUGAUCCGCCGCAGCCGAAGACUAGUGAUGUUAGUUUCUGUCACCCUUGGCAGCCUCGAGUCUAAU [theeternabot_sameState_KL_Theo_B_15] | 434 |
| UGACUGGACUGAAGGAGCGUUCAGGUAGGUCGCUAAGGAGUGAUGUUCCAUAGAAGGAGCGAACAGGUAGGUCGCAGUCUAGUCU [ArgBS 29 #DoubleAptamer #SwitchBubble] | 102 |
| CGCCGAAAGGCGAGCGCUCCCACUCCGGAAGGAGCGCCCGAAAGGGCAGGUAGGUCGCCGGAGUGAUGUUCCGGUGGAGGGCUCG [#2 Exclusion - Arginine A Attempt #30 (Inspired by Omei)] | 296 |
| AAACAUUGGUCUGAUACCAGCUGAUCGGAAACGAUCUUGCUGGAGUGAUGUUCCAGGAAAAGCCCUUGGCAGCAGACCGAUGAAA [MAT - Same State Theophlline B - Mod of Eli - D24] | 962 |
| GGCUUACUAGUGAUGUUAGUAUUUUCUGAAGGAGCGCGUGAAAACGCAGGUAGGUCGCAGAACCUUGCCAACUAUUUUAGUUGCC [Ex Arginine A K4 28] | 104 |
| AAAAUAAUCCAGUGAUGUUGGUAUACAGAUACCAGCGACGAAAGUCGCCCUUGGCAGCUGUGGACGUACAAAAUAAGUACGUCCU | 813 |
| GUAGACGUGCCUUCAGUGAUGUUGAAGGAUACCAGAUGUUACCACAUCCCUUGGCAGCCUUGGGAUAACAGUGAGUCGGUAUAUG [Ontierso] | 247 |
| UCUGUGUCCGCGGCCGCCACUCGGGACUAAGUGAUGUUUAGUCCUUCAGAAUAAAGAAGUGAUGAGAGGACCGGGCGAUCGCACC [theeternabot_sameState_KL_Trp_B_2] | 102 |
| GGGAGUGAUGUUCCCGCGUUGACGGUCCUCCGAGGACCGGUACGGCCGCCACUCGAAACCCAGUGAUGUUGGGACUCACCGUACU [Exclusion Tryptophan A GF 11] | 435 |
| CUAGGUAACACAGGAUAUGUCCGAGUGAUGUUCGAGCCUUUCCAUUGACGAAAUUAAUGGUGGGUGACAGAAGGGUGAGUACUGA [Uses] | 828 |
| CCAUCGCUAUUCGAUACCAGUCAUAAAAUCUUUGGUUAAAUAAAGGAGUGAUGUUCCCAAGACCCUUGGCAGCGAAUAGUGAUGG [Theophylline B K4 7] | 213 |
| AACUGUCAAGGACAACAUUACUGCAGUGAUACCAGCAUCGAAAGAUGCCCUUGGCAGCACCAACUUGCAGUGAUGUUGCAAGUAA [BrourdMod 5 - Jieux - Exclusion - Theophylline A] | 220 |
| GGAUAGGACAGAGGAUAUCCUUGAGGCAAGAAACUUGUCUCUAAAGGAUGAAUCCUAGUGAUGUUAGGAGAAGGCUGUCCUAUCG [FmnBX 14 - #SwitchBubble #StaticStem #Palindromic] | 87.1 |
| UUUCCAGUGAUGUUGGAGAAAACCGAGGAAGGAGCGGACUCUUGUCCAGGUAGGUCGCCUCGUCUCCCAUUGGCAGAGCGGACCC [Enlaonbian] | 211 |
| UAUAGAAACGUCCUAUCAGUAAAAUGGGAAGGAGCGAGGAAGGACUCAGGUAGGUCGCCCAAUAACCUUAGUGAUGUUAAGGAAA [Version 2] | 122 |
| AGGAUCCGUCGACAAAAGUCGACAAUAACCAAGGAUAUGACGAAAGUCAGAAGGUGGUCUUAUGACCAGUGAUGUUGGUGGAUCC [FmnA 15 #SwitchBubble #K4Late] | 243 |
| GCCUACGUAGCAGGAUAUAGGUAAGUGAGUGAUGUUCAAGAGUUCUGGAGUGAUGUUCCAAUCUGACUAGAAGGGCUACGUAGGC | 54.1 |
| GAGAGCCCUGUAGGAUAUGAGUCUAGUGAUGUUAGGCGGUCCAUGCGCGUGGCGCGUUAUGCCCUUUUAGAAGGACAGGGCUCUC [#2 Exclusion - FMN B Attempt #20 (HarryS)] | 80 |
